T1: Abp1 SH3 (ABP1_YEAST), P15891
T1 chain: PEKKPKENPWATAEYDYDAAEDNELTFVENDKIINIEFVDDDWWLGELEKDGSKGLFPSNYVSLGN


Molecular target: T1, Abp1 SH3 (ABP1_YEAST), P15891
Test: SPOT array

normalised SPOT signal, Boehringer light units (BLU); mean over the file's lines of this peptide | Binder
214 | VITPSQLPNSVRP [YFL036W 250-262]
76.3 | VAIIYYKPYLDRP [YGL139W 508-520]
12.6 | VKDYWEHPQAYKP [YMR250W 428-440]
191 | TVIYANAPIEEKP [YLR414C 249-261]
169 | TVADTLQPGLPHKP [YKL148C 463-476]
103 | VLNTRESPDSLKP [YGR109W-B 421-433]
99.6 | VILDARLPKNVKP [YDR107C 200-212]
133 | TSSSPLGPSAAKP [YDL224C 233-245]
78.9 | VIAILNPEVLPWRP [YIL150C 263-276]
489 | TYVHAWDMRSPHRP [YDR128W 137-150]
38.1 | VIIEFSSPNIAKP [YDR341C 145-157]
149 | VLPVKIQPPLLRP [YPR175W 10-22]
57.5 | VIWQATTPVDVKP [YLR381W 153-165]
43.4 | TSLFDNIPSIYRP [YGL169W 124-136]
87.4 | VGGNPDIPSLLKP [YHR080C 52-64]
126 | TTKKQENPQWLRP [YBL014C 33-45]
1770 | TTTYKSRPDRPKP [YBR289W 757-769]
93.9 | VDTFEDEPDKLKP [YGR210C 280-292]
64.4 | VENLGTNVTPPLRP [YPL242C 22-35]
356 | TVKKPARPWRAKP [YKL220C 449-461]

normalised SPOT signal, Boehringer light units (BLU); mean over the file's lines of this peptide | Binder
140 | VIAVNDNPVVPRP [YOR324C 73-85]
51.9 | VEYDYVDPRQLKP [YGL236C 383-395]
48.3 | VAFILLTPIHSRP [YGL160W 214-226]
66.3 | VADVQWSPHPAKP [YDR128W 70-82]
20.9 | VELVTVRPLDEKP [YJL105W 434-446]
20.2 | VEVDMSLPENQKP [YBR111C 165-177]
65.5 | TVEYIRPETLPKKP [YNR051C 370-383]
-0 | VFKDPEGDYKPIKP [YLR084C 1187-1200]
83.1 | TTGLNGSPTRGKP [YLL003W 876-888]
74.7 | VDGGMAFNPDPKKP [YER095W 331-344]
105 | VLALNNLSQDPPKP [YJR033C 294-307]
896 | VFSKMAKKLLPYKP [YBR270C 205-218]
110 | VDQLDTASIHPSRP [YGL115W 118-131]
133 | TTAQDGSSALPSKP [YLR431C 386-399]
3.6 | TVPTNHVPNYIKP [YGR165W 78-90]
27.7 | VEQSATIPESIKP [YGL238W 669-681]
118 | VFYENNSPEKEKP [YOR129C 465-477]
38.3 | TTPTIETPISSKP [YJL005W 370-382]
66.1 | VDRDSAIFYLPQRP [YKL188C 543-556]
352 | TVQRYYKTTVPTKP [YKR084C 138-151]

normalised SPOT signal, Boehringer light units (BLU); mean over the file's lines of this peptide | Binder
21.8 | VDGLSNPPTLLRP [YGL169W 237-249]
935 | VSGTRQSPIPKKP [YML007W 309-321]
54.5 | VLSTLYQPNGFRP [YHR194W 300-312]
51.1 | VLDVSHSKYIPLKP [YGL017W 311-324]
89.3 | VEEYWGKKFEPERP [YJR137C 1184-1197]
82 | VEFKKDLEEGPTKP [YML074C 275-288]
104 | TTVPQQLPLEPLKP [YOR329C 400-413]
172 | VDRGVGEWYKPDRP [YNL108C 86-99]
156 | VAIIRYKPYLDRP [YPL221W 502-514]
97.4 | VGNYAYGAGHPMKP [YNL330C 29-42]
76.1 | TYFSVEAPPSIRP [YEL044W 99-111]
385 | VEKINTFKTLPTKP [YDL202W 178-191]
171 | VSDKTKKKTVPVKP [YBL017C 681-694]
166 | TTKGENIKITPQKP [YJR122W 470-483]
95.4 | VDDYNASFELPLKP [YGL134W 27-40]
73 | VERNFTDPGDGKP [YMR238W 135-147]
176 | TYQTLHSPKKFKP [YOR022C 44-56]
98.3 | VFSGVTNQPSPIRP [YER129W 661-674]
145 | VIRNFRFVGLPKKP [YPR155C 202-215]

From PMC314469, “Protein Interaction Networks by Proteome Peptide Scanning” (PLoS Biology, 2004)
